Source: article PMC9135616 (Biophysics and Physicobiology, 2022)
Changes are numbered by the printed parent chain.

Columns and labels:
Experiment in all cases: SEC
wild-type KaiC = target: T1, wild-type KaiC (Synechococcus elongatus PCC 7942, UniProt Q79PF4 1-519)
T1 sequence: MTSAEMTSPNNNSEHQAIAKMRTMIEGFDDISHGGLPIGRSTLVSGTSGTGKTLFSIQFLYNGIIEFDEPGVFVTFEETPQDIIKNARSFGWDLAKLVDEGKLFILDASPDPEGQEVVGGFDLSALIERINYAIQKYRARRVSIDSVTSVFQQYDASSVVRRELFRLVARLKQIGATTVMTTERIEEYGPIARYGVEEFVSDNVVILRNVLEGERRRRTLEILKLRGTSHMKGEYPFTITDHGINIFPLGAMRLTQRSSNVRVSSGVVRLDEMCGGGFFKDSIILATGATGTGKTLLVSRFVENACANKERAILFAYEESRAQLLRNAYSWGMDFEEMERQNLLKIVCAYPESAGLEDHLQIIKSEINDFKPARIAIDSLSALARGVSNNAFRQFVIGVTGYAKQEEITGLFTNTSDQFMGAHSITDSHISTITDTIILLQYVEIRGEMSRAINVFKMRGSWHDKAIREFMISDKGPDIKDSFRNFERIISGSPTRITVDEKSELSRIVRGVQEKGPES

[1] = target: T2, KaiC-pSpT-mimicking S431D/T432E KaiC mutant (Synechococcus elongatus PCC 7942, UniProt Q79PF4 1-519, S431D | T432E)
T2 sequence: T1 sequence with S431D, T432E

KaiC^S157P = target: T3, KaiC^S157P (Synechococcus elongatus PCC 7942, UniProt Q79PF4 1-519, S157P)
T3 sequence: T1 sequence with S157P

KaiC^C306A = target: T4, KaiC^C306A (Synechococcus elongatus PCC 7942, UniProt Q79PF4 1-519, C306A)
T4 sequence: T1 sequence with C306A

KaiC^F470Y = target: T5, KaiC^F470Y (Synechococcus elongatus PCC 7942, UniProt Q79PF4 1-519, F470Y)
T5 sequence: T1 sequence with F470Y

B1: KaiB (natural protein)
chain: MSPRKTYILKLYVAGNTPNSVRALKTLKNILEVEFQGVYALKVIDVLKNPQLAEEDKILATPTLAKVLPLPVRRIIGDLSDREKVLIGLDLLYGELQDSDDF
koff (wild-type KaiC): 2.39e-05 s⁻¹ | koff [1]: 1.56e-06 s⁻¹ | binding result (KaiC^S157P): binds | binding result (KaiC^C306A): binds | binding result (KaiC^F470Y): binds
